Results published in publication PMC8811837 (Advanced Science, 2021).

Biological target: T1, σ70 (E. coli, UniProt P00579)
T1 construct: also called σR4 (region 4); σ70 R4
Assay: cryo-EM structure
Conditions: both partners purified

T1 sequence (P00579 whole entry): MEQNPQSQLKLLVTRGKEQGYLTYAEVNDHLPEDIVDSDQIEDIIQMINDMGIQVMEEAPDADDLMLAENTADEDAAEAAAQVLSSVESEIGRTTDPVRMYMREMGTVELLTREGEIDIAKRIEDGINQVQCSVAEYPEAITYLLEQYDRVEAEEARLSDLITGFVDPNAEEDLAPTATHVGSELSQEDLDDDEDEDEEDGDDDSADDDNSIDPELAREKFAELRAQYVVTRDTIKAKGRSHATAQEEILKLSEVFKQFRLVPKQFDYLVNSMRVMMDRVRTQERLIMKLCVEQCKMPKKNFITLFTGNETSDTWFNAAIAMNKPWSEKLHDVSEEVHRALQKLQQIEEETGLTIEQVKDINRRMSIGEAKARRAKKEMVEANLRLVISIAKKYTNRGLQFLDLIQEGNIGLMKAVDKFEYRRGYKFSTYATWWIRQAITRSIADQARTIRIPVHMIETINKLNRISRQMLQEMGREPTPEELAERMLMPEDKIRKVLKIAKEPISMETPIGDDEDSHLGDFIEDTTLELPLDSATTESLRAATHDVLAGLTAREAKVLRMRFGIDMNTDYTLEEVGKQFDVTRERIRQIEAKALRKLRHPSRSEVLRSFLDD

B1: RamA (natural protein)
chain: MTISAQVIDTIVEWIDDNLHQPLRIDDIARHAGYSKWHLQRLFLQYKGESLGRYIRERKLLLAARDLRDTDQRVYDICLKYGFDSQQTFTRVFTRTFNQPPGAYRKENHSRAH
Q: Does B1 bind?
A: binds
